Laboratory results from PMC1301591 (Nucleic Acids Research, 2005).

How the values were obtained:
[1] = molecular target: T1, Recombinant His-tagged WRN protein (human, UniProt Q14191 1-1432); test: ELISA
[2] = molecular target: Recombinant His-tagged BLM protein (human, UniProt P54132 1-1417); test: pull-down
[3] = molecular target: T1, Recombinant His-tagged WRN protein; test: pull-down

Chain of Recombinant His-tagged BLM protein (P54132 whole entry): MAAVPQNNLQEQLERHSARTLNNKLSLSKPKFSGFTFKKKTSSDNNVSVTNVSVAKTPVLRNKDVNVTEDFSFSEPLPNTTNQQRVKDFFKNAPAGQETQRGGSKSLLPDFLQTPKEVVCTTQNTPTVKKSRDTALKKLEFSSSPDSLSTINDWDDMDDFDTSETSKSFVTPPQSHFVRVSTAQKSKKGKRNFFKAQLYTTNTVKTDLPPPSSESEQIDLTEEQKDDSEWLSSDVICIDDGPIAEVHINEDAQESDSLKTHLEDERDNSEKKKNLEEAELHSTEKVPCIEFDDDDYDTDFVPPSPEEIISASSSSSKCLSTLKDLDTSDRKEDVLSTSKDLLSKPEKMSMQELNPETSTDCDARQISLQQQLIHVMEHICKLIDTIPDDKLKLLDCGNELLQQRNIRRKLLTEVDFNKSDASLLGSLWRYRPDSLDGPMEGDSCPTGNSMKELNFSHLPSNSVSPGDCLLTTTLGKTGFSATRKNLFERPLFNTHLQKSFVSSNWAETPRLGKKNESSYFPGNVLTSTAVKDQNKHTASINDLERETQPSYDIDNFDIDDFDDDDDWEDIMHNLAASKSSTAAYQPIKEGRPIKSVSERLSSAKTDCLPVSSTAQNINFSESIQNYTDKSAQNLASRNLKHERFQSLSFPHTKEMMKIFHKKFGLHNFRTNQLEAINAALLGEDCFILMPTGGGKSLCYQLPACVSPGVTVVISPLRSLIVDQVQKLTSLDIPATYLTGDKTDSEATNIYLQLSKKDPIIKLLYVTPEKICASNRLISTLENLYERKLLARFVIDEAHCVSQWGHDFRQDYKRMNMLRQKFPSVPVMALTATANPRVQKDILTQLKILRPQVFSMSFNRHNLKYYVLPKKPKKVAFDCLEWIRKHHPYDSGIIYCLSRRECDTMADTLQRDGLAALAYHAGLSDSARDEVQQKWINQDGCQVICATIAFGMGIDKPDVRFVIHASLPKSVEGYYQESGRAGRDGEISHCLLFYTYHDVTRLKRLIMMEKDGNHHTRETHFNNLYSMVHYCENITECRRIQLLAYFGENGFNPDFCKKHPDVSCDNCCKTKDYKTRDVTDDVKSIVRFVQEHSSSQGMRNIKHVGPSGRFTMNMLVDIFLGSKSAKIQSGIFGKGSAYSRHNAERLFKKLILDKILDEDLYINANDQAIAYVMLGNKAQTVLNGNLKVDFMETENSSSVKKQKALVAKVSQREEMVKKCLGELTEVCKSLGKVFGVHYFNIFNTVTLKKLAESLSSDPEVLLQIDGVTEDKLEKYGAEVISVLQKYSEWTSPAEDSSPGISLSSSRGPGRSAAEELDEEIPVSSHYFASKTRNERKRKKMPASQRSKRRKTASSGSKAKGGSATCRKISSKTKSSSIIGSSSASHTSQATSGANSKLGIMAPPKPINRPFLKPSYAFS
T1 sequence (Q14191 whole entry): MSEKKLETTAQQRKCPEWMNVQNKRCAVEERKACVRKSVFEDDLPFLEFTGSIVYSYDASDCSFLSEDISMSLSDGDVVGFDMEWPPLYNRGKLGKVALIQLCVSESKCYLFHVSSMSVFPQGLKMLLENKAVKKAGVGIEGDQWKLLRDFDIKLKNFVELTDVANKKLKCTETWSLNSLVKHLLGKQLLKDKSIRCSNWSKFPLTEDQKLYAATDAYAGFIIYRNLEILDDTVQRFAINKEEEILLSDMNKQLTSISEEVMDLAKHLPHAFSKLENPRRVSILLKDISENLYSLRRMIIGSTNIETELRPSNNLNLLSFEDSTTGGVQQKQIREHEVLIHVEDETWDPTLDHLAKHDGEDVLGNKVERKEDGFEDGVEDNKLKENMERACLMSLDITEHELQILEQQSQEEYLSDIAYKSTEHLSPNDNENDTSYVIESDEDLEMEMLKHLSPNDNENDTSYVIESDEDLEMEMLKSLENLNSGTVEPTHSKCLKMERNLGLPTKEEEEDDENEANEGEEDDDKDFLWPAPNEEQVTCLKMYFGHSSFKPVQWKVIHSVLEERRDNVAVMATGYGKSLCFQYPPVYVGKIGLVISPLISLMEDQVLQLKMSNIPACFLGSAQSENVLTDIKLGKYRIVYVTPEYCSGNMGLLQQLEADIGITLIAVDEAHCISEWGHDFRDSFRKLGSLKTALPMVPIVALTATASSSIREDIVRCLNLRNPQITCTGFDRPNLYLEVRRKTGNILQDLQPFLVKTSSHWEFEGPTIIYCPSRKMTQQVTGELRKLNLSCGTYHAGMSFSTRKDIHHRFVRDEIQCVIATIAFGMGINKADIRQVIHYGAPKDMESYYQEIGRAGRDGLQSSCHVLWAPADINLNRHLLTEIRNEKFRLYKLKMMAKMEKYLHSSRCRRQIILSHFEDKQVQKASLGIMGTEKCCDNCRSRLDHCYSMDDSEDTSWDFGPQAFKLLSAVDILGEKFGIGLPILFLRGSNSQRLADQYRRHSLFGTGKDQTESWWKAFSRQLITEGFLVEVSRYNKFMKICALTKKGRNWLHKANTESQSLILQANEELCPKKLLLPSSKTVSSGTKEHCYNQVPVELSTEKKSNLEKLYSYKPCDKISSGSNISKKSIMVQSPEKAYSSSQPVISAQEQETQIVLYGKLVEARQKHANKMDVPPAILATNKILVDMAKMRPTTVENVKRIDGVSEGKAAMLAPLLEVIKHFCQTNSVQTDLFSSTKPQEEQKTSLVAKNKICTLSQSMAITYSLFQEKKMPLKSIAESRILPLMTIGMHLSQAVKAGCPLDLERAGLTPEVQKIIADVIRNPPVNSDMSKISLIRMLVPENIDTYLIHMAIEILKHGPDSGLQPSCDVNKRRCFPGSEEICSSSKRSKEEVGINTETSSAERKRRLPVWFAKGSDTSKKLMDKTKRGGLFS

B1: FEN-1ΔP (residues 337–344 are deleted) (enzyme, human, UniProt P39748 1-380, looked up)
chain: MGIQGLAKLIADVAPSAIRENDIKSYFGRKVAIDASMSIYQFLIAVRQGGDVLQNEEGETTSHLMGMFYRTIRMMENGIKPVYVFDGKPPQLKSGELAKRSERRAEAEKQLQQAQAAGAEQEVEKFTKRLVKVTKQHNDECKHLLSLMGIPYLDAPSEAEASCAALVKAGKVYAAATEDMDCLTFGSPVLMRHLTASEAKKLPIQEFHLSRILQELGLNQEQFVDLCILLGSDYCESIRGIGPKRAVDLIQKHKSIEEIVRRLDPNKYPVPENWLHKEAHQLFLEPEVLDPESVELKWSEPNEEELIKFMCGEKQFSEERIRSGVKRLSKSRQGSTKVTGSLSSAKRKEPEPKGSTKKKAKTGAAGKFKRGK
Q: Does B1 bind [1]?
A: binds

B2: GST–FEN-1 fusion protein containing human FEN-1 amino acids 254–380 (domain or fragment, UniProt P39748 254-380, looked up)
chain: KSIEEIVRRLDPNKYPVPENWLHKEAHQLFLEPEVLDPESVELKWSEPNEEELIKFMCGEKQFSEERIRSGVKRLSKSRQGSTQGRLDDFFKVTGSLSSAKRKEPEPKGSTKKKAKTGAAGKFKRGK
Q: Which results are given for B2?
A: binding result [2]: binds; binding result [3]: binds

B3: GST–FEN-1 fusion protein containing human FEN-1 amino acids 328–380 (domain or fragment, UniProt P39748 328-380, looked up)
chain: LSKSRQGSTQGRLDDFFKVTGSLSSAKRKEPEPKGSTKKKAKTGAAGKFKRGK
Q: Does B3 bind [2]?
A: binds

Q: Does B3 bind [3]?
A: binds

Q: Does STKKKAKTGAAGKFKRGK (domain or fragment, UniProt P39748 363-380, looked up) [GST–FEN-1 fusion protein containing human FEN-1 amino acids 363–380] bind [2]?
A: binds

Q: Does STKKKAKTGAAGKFKRGK (domain or fragment, UniProt P39748 363-380, looked up) [GST–FEN-1 fusion protein containing human FEN-1 amino acids 363–380] bind [3]?
A: binds
